Assay results from patent US20140206846A1 (published 2014).
Substitutions are numbered along the chain they refer to.

B1: IL6P (Fab, V domains shown)
VH: EVQLVESGGGLVQPGGSLRLSCAASGFTFSSYAMSWIRQAPGKGLEWIGQISGSGGSTVYNYNVLGRFTISRDNSKNTLYLQMNSLRAEDTAVYYCARDSGYFDIWGQGTLVTVSS
VL: NIQKTQSPSSLSASVGDRVTITCRALWHISSYLAWYQQKPGKAPKLLIYAASSLYSGVPSRFSGSGSGTDFTLTISSLQPEDFATYYCQQYSGLPYTFGQGTKVEIKR
B2: VH6L (bispecific antibody, V domains shown)
VH: B1 VH with E1Y, V2Y, S25D, T28L, S31G, S100T, I105H
VL: NIQKTQSPSSLSASVGDRVTITCRALWHISSYLAWYQQKPGKAPKLLIYAASHLHYGVPSRFSGSGSGTDFTLTISSLQPEDFATYYCQQYSGLPYTFGQGTKVEIK
notes: Combination of IL6P and VEGFP; two paratopes in one VH-VL pair; tested as Fab fragment; also called bi-specific antibody clone VH6L; combined clone VH6L
B3: Dummy 1 Fab (Fab, V domains shown)
VH: B1 VH with V59Y, Y62D
VL: B2 VL with N1D, I2T, K4M, L26S, W27Q, H28S, H53S, H55Y, Y56S, G93S
notes: Tested as soluble Fab in E. coli TG1 culture supernatant; Strep-II tag fused to the C-terminus of the heavy chain

Tests used:
human IL6 = molecular target: T1, human IL6 (human, UniProt P05231 30-212); assay: Biacore SPR, Fab captured by anti-light chain antibody, IL6 as analyte
T1 construct: Bought recombinant protein
Experimental: Antibody libraries were selected against human VEGF (Peprotech catalogue number 100-20) and human IL6 (Peprotech catalogue number 200-06). Of the isolated parental antibody clones, IL6P and VEGFP were combined into the bi-specific antibody clone VH6L. […] To assess the affinities of parental and bi-specific antibodies, Biacore™ analysis was performed in order to analyze the binding behaviour of IL6P, VH6L and VEGFP. For this, an anti-light chain capture antibody was immobilized onto a CM5 chip using amine-coupling, resulting in 12000 RU. Fab fragments were captured to a level of 400-500 RU and a concentration series of IL6 and VEGF, ranging from 0 to 450 nM, was passed over the chip. As depicted in FIG. 7, clone IL6P binds to IL6, but not to VEGF, clone VEGFP binds to VEGF, but not to IL6, and the combined clone VH6L binds to both IL6 and VEGF.

HEL = molecular target: T2, HEL (UniProt P00698 19-147, biotinylated); assay: ELISA, biotinylated target (20 nM) on streptavidin plates, Fab in culture supernatant
T2 construct: Control target of the ELISA
T2 sequence (P00698 19-147): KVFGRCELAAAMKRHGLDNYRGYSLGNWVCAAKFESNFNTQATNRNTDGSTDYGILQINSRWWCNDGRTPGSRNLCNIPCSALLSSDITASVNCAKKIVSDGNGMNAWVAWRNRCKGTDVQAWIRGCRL
Experimental: To test the specificity of antibodies selected from Lib1 and Lib2 libraries against one target and the specificity of bi-specific antibodies designed to bind both targets, Enzyme-linked immunosorbent assays (ELISAs) were performed using standard methods. Briefly, Nunc Maxisorp plates were prepared by coating with Streptavidin dissolved in 1×PBS, binding 20 nM of biotinylated targets (GST, MBP, HEL or VEGF) in PBS-T (0.3% Tween-20 dissolved in 1×PBS) and blocking with 5% skimmed milk powder in PBS-T. Thereafter, 50 μl of E. coli TG1 culture supernatant expressing antibody clones as soluble Fab fragments in microtiter plates were added, followed by detection of bound Fab fragments using goat anti-human kappa light chain polyclonal antibody (Sigma) or mouse anti-Strep tag antibody (IBA) specific for a Strep-Il tag fused to the C-terminus of the heavy chain in the soluble Fab expression construct. Secondary antibodies were detected using HRP-labeled tertiary antibodies, ELISAs were developed using TMB substrate (KPL), and signal was quantified using a Victor plate reader from PerkinElmer set to 450 nm. […] None of the clones bound the control targets HEL or VEGF (FIG. 5). Experiments were performed in duplicate using two independent colonies for each Fab.

Binder	Kd (human IL6)	binding result (HEL)
B1	38 nM	
B2	40 nM	
B3		no binding
